Data as given in patent US9708383 (Novo Nordisk, dated 2017).
*1 amine or outer side, *2 acyl side, *3 side chain or, on linkers, in order; H or OH if unused. Where no end group is shown, it is not given here. Side-chain parts run from the residue outwards. [ ]: non-standard residue; d: D form. The star is where a group is joined. Decanoyl(10-(4-HOOC-PhO)) = O=C(O)c1ccc(OCCCCCCCCCC(=O)*)cc1; d(γGlu) = O=C(O)[C@@H](CCC(=O)[*:2])N[*:1]; C16 diacid = O=C(O)CCCCCCCCCCCCCCC(=O)*; γGlu = O=C(O)[C@H](CCC(=O)[*:2])N[*:1]; C12 diacid = O=C(O)CCCCCCCCCCC(=O)*; 13‑carboxytridecanoyl = C14 diacid; AEEA = NCCOCCOCC(=O)O; Aib = CC(C)(N)C(=O)O

B1: GLP-1 derivative of Example 15: [Lys8,Glu22,Arg26,Lys31,Gly34]-GLP-1-(7-34)-peptide (peptide)
peptide: HAEGTFTSDVSK([AEEA-AEEA-γGlu-13‑carboxytridecanoyl])YLEEQAAREFIAK([AEEA-AEEA-γGlu-13‑carboxytridecanoyl])LVG
notes: Name prints Lys8, evidently Lys18 (acylation at Nε18)
B2: GLP-1 derivative of Example 103: [Aib8,Lys18,Arg34]-GLP-1-(7-37)-peptide (peptide)
peptide: HXEGTFTSDVSKYLEGQAAKEFIAWLVRGRG
modifications: Aib8; Lys18 and Lys26 each Nε-acylated with 13-carboxytridecanoyl-gGlu-gGlu-OEG-OEG
B3: GLP-1 derivative of Example 135: [Aib8,Lys18,Glu22,Val25,Arg26,Lys31,Arg34]-GLP-1-(7-37)-peptide amide (peptide)
peptide: H[Aib]EGTFTSDVSK([AEEA-AEEA-AEEA-AEEA-γGlu-C16 diacid])YLEEQAVREFIAK([AEEA-AEEA-AEEA-AEEA-γGlu-C16 diacid])LVRGRG-NH2
modifications: N-terminus assumed
SMILES: CC[C@H](C)[C@H](NC(=O)[C@H](Cc1ccccc1)NC(=O)[C@H](CCC(=O)O)NC(=O)[C@H](CCCNC(=N)N)NC(=O)[C@@H](NC(=O)[C@H](C)NC(=O)[C@H](CCC(N)=O)NC(=O)[C@H](CCC(=O)O)NC(=O)[C@H](CCC(=O)O)NC(=O)[C@H](CC(C)C)NC(=O)[C@H](Cc1ccc(O)cc1)NC(=O)[C@H](CCCCNC(=O)COCCOCCNC(=O)COCCOCCNC(=O)COCCOCCNC(=O)COCCOCCNC(=O)CC[C@H](NC(=O)CCCCCCCCCCCCCCC(=O)O)C(=O)O)NC(=O)[C@H](CO)NC(=O)[C@@H](NC(=O)[C@H](CC(=O)O)NC(=O)[C@H](CO)NC(=O)[C@@H](NC(=O)[C@H](Cc1ccccc1)NC(=O)[C@@H](NC(=O)CNC(=O)[C@H](CCC(=O)O)NC(=O)C(C)(C)NC(=O)[C@@H](N)Cc1c[nH]cn1)[C@@H](C)O)[C@@H](C)O)C(C)C)C(C)C)C(=O)N[C@@H](C)C(=O)N[C@@H](CCCCNC(=O)COCCOCCNC(=O)COCCOCCNC(=O)COCCOCCNC(=O)COCCOCCNC(=O)CC[C@H](NC(=O)CCCCCCCCCCCCCCC(=O)O)C(=O)O)C(=O)N[C@@H](CC(C)C)C(=O)N[C@H](C(=O)N[C@@H](CCCNC(=N)N)C(=O)NCC(=O)N[C@@H](CCCNC(=N)N)C(=O)NCC(N)=O)C(C)C
B4: GLP-1 derivative of Example 115: [Aib8,Lys18,Arg34]-GLP-1-(7-37)-peptide (peptide)
peptide: HXEGTFTSDVSKYLEGQAAKEFIAWLVRGRG
modifications: Aib8; Lys18 and Lys26 each Nε-acylated with 10-(4-carboxyphenoxy)decanoyl-OEG-OEG-gGlu
B5: GLP-1 derivative of Example 108: [Aib8,Lys18,Arg34]-GLP-1-(7-37)-peptide (peptide)
peptide: HXEGTFTSDVSKYLEGQAAKEFIAWLVRGRG
modifications: Aib8; Lys18 and Lys26 each Nε-acylated with 11-carboxyundecanoyl-gGlu-gGlu-OEG-OEG
B6: GLP-1 derivative of Example 93: [Aib8,Lys18,Arg34]-GLP-1-(7-37)-peptide (peptide)
peptide: HXEGTFTSDVSKYLEGQAAKEFIAWLVRGRG
modifications: Aib8; Lys18 and Lys26 each Nε-acylated with 10-(4-carboxyphenoxy)decanoyl-gGlu-OEG-OEG

Tests used:
human GLP-1 receptor [1] = biological target: T1, human GLP-1 receptor (human, UniProt P43220 24-463); assay: SPA, displacement of 125I-GLP-1(7-36)NH2, 0.005% HSA
T1 construct: whole, on cells; Used as purified membranes of the transfected hamster cells, not whole cells; also called hGLP-1
Method: (§1) A shift in the binding affinity, $IC50$, is an indication that the derivative in question binds to albumin, and thereby a prediction of a potential protracted pharmacokinetic profile of the derivative in question in animal models.
(§2) 25 ul (microliter) of test compounds are added to Optiplate. HSA ("high albumin" experiment containing 2% HSA), or buffer ("low albumin" experiment containing 0.005% HSA), was added (50 ul). 5-10 µg protein/sample was added (50 ul) corresponding to 0.1-0.2 mg protein/ml (to be preferably optimised for each membrane preparation). SPA-particles (Wheatgerm agglutinin SPA beads, Perkin Elmer, #RPNQ0001) were added in an amount of 0.5 mg/well (50 ul). […] The plates were sealed with PlateSealer and incubated for 120 minutes at 30° C. while shaking. The plates were centrifuged (1500 rpm, 10 min) and counted in Topcounter.

human GLP-1 receptor [2] = biological target: T1, human GLP-1 receptor; assay: SPA, 2.0% vs 0.005% HSA
Method: as §1, §2

Binder | IC50 (human GLP-1 receptor [1]) [nM] | ratio IC50 high HSA/IC50 low HSA (human GLP-1 receptor [2])
HAEGTFTSDVSK([AEEA-AEEA-γGlu-13‑carboxytridecanoyl])YLEEQAVREFIAK([AEEA-AEEA-γGlu-13‑carboxytridecanoyl])LVG [GLP-1 derivative of Example 10: [Lys18,Glu22,Val25,Arg26,Lys31,Gly34]-GLP-1-(7-34)-peptide] | < 1000 | > 1
B1 | < 1000 | > 1
HAEGTFTSDVSK([AEEA-AEEA-13‑carboxytridecanoyl])YLEEQAARK([AEEA-AEEA-13‑carboxytridecanoyl])FIAHLVG [GLP-1 derivative of Example 28: [Lys18,Glu22,Arg26,Lys27,His31,Gly34]-GLP-1-(7-34)-peptide] | < 1000 | > 1
HSEGTFTSDVSK([AEEA-AEEA-γGlu-C12 diacid])YLEEQAVREFIAK([AEEA-AEEA-γGlu-C12 diacid])LVG [GLP-1 derivative of Example 25: [Ser8,Lys18,Glu22,Val25,Arg26,Lys31,Gly34]-GLP-1-(7-34)-peptide] | < 1000 | > 1
HAEGTFTSDVSK([γGlu-AEEA-AEEA-13‑carboxytridecanoyl])YLEEQAARK([γGlu-AEEA-AEEA-13‑carboxytridecanoyl])FIAHLVG [GLP-1 derivative of Example 29: [Lys18,Glu22,Arg26,Lys27,His31,Gly34]-GLP-1-(7-34)-peptide] | < 1000 | > 1
HAEGTFTSDVSK([AEEA-AEEA-γGlu-Decanoyl(10-(4-HOOC-PhO))])YLEEQAARK([AEEA-AEEA-γGlu-Decanoyl(10-(4-HOOC-PhO))])FIAHLVG [GLP-1 derivative of Example 30: [Lys18,Glu22,Arg26,Lys27,His31,Gly34]-GLP-1-(7-34)-peptide] | < 1000 | > 1
HSEGTFTSDVSK([AEEA-AEEA-γGlu-13‑carboxytridecanoyl])YLEEQAVREFIAK([AEEA-AEEA-γGlu-13‑carboxytridecanoyl])LVG [GLP-1 derivative of Example 14: [Ser8,Lys18,Glu22,Val25,Arg26,Lys31,Gly34]-GLP-1-(7-34)-peptide] | < 1000 | > 1
H[Aib]EGTFTSDVSK([AEEA-AEEA-d(γGlu)-γGlu-13‑carboxytridecanoyl])YLEEQAAK([AEEA-AEEA-d(γGlu)-γGlu-13‑carboxytridecanoyl])EFIAWLVQGRG [GLP-1 derivative of Example 105: [Aib8,Lys18,Glu22,Gln34]-GLP-1-(7-37)-peptide] | < 1000 | > 1
H[Aib]EGTFTSDVSK([AEEA-AEEA-γGlu-Decanoyl(10-(4-HOOC-PhO))])YLEGQAAK([AEEA-AEEA-γGlu-Decanoyl(10-(4-HOOC-PhO))])EFIAWLVQGRG [GLP-1 derivative of Example 92: [Aib8,Lys18,Gln34]-GLP-1-(7-37)-peptide] | < 1000 | > 1
B2 | < 1000 | > 1
H[Aib]EGTFTSDVSK([AEEA-γGlu-AEEA-C16 diacid])YLEEQAVREFIAK([AEEA-γGlu-AEEA-C16 diacid])LVRGRG [GLP-1 derivative of Example 146: [Aib8,Lys18,Glu22,Val25,Arg26,Lys31,Arg34]-GLP-1-(7-37)-peptide] | < 1000 | > 1
B3 | < 1000 | > 1
H[Aib]EGTFTSDVSK([AEEA-AEEA-γGlu-γGlu-C16 diacid])YLEEQAVREFIAK([AEEA-AEEA-γGlu-γGlu-C16 diacid])LVRGRG [GLP-1 derivative of Example 134: [Aib8,Lys18,Glu22,Val25,Arg26,Lys31,Arg34]-GLP-1-(7-37)-peptide] | < 1000 | > 1
H[Aib]EGTFTSDVSK([AEEA-AEEA-AEEA-AEEA-AEEA-AEEA-γGlu-13‑carboxytridecanoyl])YLEEQAVREFIAK([AEEA-AEEA-AEEA-AEEA-AEEA-AEEA-γGlu-13‑carboxytridecanoyl])LVRGRG [GLP-1 derivative of Example 131: [Aib8,Lys18,Glu22,Val25,Arg26,Lys31,Arg34]-GLP-1-(7-37)-peptide] | < 1000 | > 1
H[Aib]EGTFTSDVSK([AEEA-AEEA-γGlu-Decanoyl(10-(4-HOOC-PhO))])YLEGQAAK([AEEA-AEEA-γGlu-Decanoyl(10-(4-HOOC-PhO))])EFIAWLVHGRG [GLP-1 derivative of Example 142: [Aib8,Lys18,His34]-GLP-1-(7-37)-peptide] | < 1000 | > 1
B4 | < 1000 | > 1
H[Aib]EGTFTSDVSK([AEEA-γGlu-AEEA-13‑carboxytridecanoyl])YLEEQAVREFIAK([AEEA-γGlu-AEEA-13‑carboxytridecanoyl])LVRGRG [GLP-1 derivative of Example 145: [Aib8,Lys18,Glu22,Val25,Arg26,Lys31,Arg34]-GLP-1-(7-37)-peptide] | < 1000 | > 1
B5 | < 1000 | > 1
H[Aib]EGTFTSDVSK([AEEA-AEEA-γGlu-13‑carboxytridecanoyl])YLEEQAAK([AEEA-AEEA-γGlu-13‑carboxytridecanoyl])EFIAWLVRGRG [GLP-1 derivative of Example 100: [Aib8,Lys18,Glu22,Arg34]-GLP-1-(7-37)-peptide] | < 1000 | > 1
H[Aib]EGTFTSDVSK([AEEA-AEEA-AEEA-AEEA-AEEA-AEEA-γGlu-13‑carboxytridecanoyl])YLEEQAVREFIAK([AEEA-AEEA-AEEA-AEEA-AEEA-AEEA-γGlu-13‑carboxytridecanoyl])LVRGRG [GLP-1 derivative of Example 144: [Aib8,Lys18,Glu22,Val25,Arg26,Lys31,Arg34]-GLP-1-(7-37)-peptide] | < 1000 | > 1
H[Aib]EGTFTSDVSK([AEEA-AEEA-AEEA-AEEA-γGlu-13‑carboxytridecanoyl])YLEEQAVREFIAK([AEEA-AEEA-AEEA-AEEA-γGlu-13‑carboxytridecanoyl])LVRGRG [GLP-1 derivative of Example 130: [Aib8,Lys18,Glu22,Val25,Arg26,Lys31,Arg34]-GLP-1-(7-37)-peptide] | < 1000 | > 1
H[Aib]EGTFTSDVSKYLEEQAVREFIAKLVRGRG (not fully specified (residues 12, 25)) [GLP-1 derivative of Example 137: [Aib8,Lys18,Glu22,Val25,Arg26,Lys31,Arg34]-GLP-1-(7-37)-peptide] | < 1000 | > 1
H[Aib]EGTFTSDVSK([AEEA-AEEA-γGlu-13‑carboxytridecanoyl])YLEGQAVREFIAK([AEEA-AEEA-γGlu-13‑carboxytridecanoyl])LVRGRG [GLP-1 derivative of Example 112: [Aib8,Lys18,Val25,Arg26,Lys31,Arg34]-GLP-1-(7-37)-peptide] | < 1000 | > 1
H[Aib]EGTFTSDVSK([AEEA-AEEA-γGlu-13‑carboxytridecanoyl])YLEGQAAK([AEEA-AEEA-γGlu-13‑carboxytridecanoyl])EFIAWLVQGRG [GLP-1 derivative of Example 141: [Aib8,Lys18,Gln34]-GLP-1-(7-37)-peptide] | < 1000 | > 1
H[Aib]EGTLTSDVSK([AEEA-AEEA-γGlu-Decanoyl(10-(4-HOOC-PhO))])YLEGQAAK([AEEA-AEEA-γGlu-Decanoyl(10-(4-HOOC-PhO))])EFIAWLVQGRG [GLP-1 derivative of Example 139: [Aib8,Leu12,Lys18,Gln34]-GLP-1-(7-37)-peptide] | < 1000 | > 1
B6 | < 1000 | > 1
H[Aib]EGTFTSDVSK([AEEA-AEEA-γGlu-γGlu-γGlu-13‑carboxytridecanoyl])YLEEQAVREFIAK([AEEA-AEEA-γGlu-γGlu-γGlu-13‑carboxytridecanoyl])LVRGRG [GLP-1 derivative of Example 102: [Aib8,Lys18,Glu22,Val25,Arg26,Lys31,Arg34]-GLP-1-(7-37)-peptide] | < 1000 | > 1
